In patent US20090239800A1 (GEORGIA TECH RESEARCH CORPORARION, published 2009):
No end group written: not given here.

Assays:
rabbit ClC-2 [1] = target: T1, rabbit ClC-2 (rabbit, UniProt P51789 1-898); assay: cell-based or functional assay
T1 sequence (looked up): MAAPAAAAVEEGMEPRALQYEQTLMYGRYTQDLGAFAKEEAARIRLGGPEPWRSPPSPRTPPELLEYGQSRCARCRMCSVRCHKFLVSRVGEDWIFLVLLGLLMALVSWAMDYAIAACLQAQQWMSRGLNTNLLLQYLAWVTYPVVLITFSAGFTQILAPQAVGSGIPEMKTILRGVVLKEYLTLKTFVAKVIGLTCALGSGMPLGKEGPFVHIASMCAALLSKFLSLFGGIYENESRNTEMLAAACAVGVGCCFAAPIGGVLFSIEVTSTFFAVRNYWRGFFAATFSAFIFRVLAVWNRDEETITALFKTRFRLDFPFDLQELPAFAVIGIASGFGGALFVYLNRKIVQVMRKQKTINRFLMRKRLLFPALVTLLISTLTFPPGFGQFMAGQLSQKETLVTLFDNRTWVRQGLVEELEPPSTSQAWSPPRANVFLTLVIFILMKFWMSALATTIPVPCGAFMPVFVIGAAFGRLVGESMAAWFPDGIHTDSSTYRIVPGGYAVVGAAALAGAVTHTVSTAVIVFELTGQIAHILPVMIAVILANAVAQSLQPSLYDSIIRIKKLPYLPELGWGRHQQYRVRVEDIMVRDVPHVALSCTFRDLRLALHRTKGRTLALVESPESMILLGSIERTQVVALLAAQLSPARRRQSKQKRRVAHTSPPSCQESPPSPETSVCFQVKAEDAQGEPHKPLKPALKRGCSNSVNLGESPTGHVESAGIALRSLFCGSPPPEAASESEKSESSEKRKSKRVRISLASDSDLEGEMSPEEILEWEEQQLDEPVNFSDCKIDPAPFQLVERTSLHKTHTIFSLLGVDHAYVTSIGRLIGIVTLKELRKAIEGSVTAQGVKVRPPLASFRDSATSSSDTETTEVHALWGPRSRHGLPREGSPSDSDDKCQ

ClC-1 = assay: cell-based or functional assay
rabbit ClC-2 [2] = target: T1, rabbit ClC-2; assay: dose-response of inhibition of ClC-2 window current, inside-out multi-channel patches, synthetic toxin backfilled in the pipette, VM=-100 mV (FIG. 3B)

## VSCEDCPDHCSTQKARAKCDNDKCVCEPI (disulfide (positions not given here), also called Leiuropeptide II; LPII) [GaTx2]
Rabbit ClC-2 [1]
  latency to first opening upon stepping from VM 0 to -100 mV, 20 pM GaTx2: 7.67 fold increase
ClC-1
  ClC-1 tail currents at VM=-120 mV from +60 mV, 10 nM GaTx2 against after washout of toxin: 1.04 fold
Rabbit ClC-2 [2]
  Kd: 0.012 nM
